# Assay results taken from patent publication US20140079716A1 (Biogen, published 2014).
# Numbering of substitutions follows the chain as printed. Several values for one entry are separate records, joined by “and”; a condition that tells them apart may be missing. Equal entries are not always repeated.
# T1: soluble recombinant human lymphotoxin α1β2 (human, UniProt P01374 35-205, limits assumed)
# T1 sequence 1: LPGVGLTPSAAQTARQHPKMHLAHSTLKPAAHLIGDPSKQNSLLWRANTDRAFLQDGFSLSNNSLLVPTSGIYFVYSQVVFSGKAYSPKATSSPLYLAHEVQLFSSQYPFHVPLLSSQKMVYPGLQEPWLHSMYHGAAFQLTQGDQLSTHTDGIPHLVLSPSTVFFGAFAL
# T1 sequence 2: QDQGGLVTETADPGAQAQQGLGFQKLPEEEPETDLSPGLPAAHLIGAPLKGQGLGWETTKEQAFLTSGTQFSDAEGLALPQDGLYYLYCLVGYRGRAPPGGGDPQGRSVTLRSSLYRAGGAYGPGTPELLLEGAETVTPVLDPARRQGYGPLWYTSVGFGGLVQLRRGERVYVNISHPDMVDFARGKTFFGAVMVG
# T2: human LT (human, UniProt P01374 35-205, limits assumed)
# T2 construct: also called human LTα1β2
# T2 sequence 1: T1 sequence 1
# T2 sequence 2: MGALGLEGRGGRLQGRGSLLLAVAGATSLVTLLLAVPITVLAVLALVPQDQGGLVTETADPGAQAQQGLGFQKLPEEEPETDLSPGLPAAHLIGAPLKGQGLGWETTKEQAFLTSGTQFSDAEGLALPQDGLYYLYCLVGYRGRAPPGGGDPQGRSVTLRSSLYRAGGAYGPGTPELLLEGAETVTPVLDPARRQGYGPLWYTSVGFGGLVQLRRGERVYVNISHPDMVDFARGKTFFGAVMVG
# T3: LTα3 (soluble homotrimer) (UniProt P01374 35-205)
# T3 construct: Coated on ELISA plates at 1 or 5 ug/ml; also called LTa3
# T3 sequence (looked up): T1 sequence 1
# T4: LTα1β2 on the surface of PMA-treated II-23 cells (UniProt P01374 35-205, limits assumed)
# T4 construct: whole, on cells; also called surface LT
# T4 sequence 1: T1 sequence 1
# T4 sequence 2: T2 sequence 2
# T5: Soluble Flag-tagged LTα1β2 (UniProt P01374 35-205, limits assumed)
# T5 construct: Biacore ligand captured on the anti-Flag antibody M2; the whole LTβ entry is named here; also called Ligand
# T5 sequence 1: T1 sequence 1
# T5 sequence 2: T1 sequence 2
# B1: LT101 (P1G4.4) / LT103 (P1G9.1) (antibody, V domains shown)
# VH: QVQLQQSGPELVKPGASVQISCKASGYVFSSSWMNWVKQRPGRGLEWIGRIYPGDGDTDYTGKFKGKATLTADKSSNTAYMQLSSLTSVDSAVYFCASGYFDFWGQGTPLTVSS
# VL: DITMTQSPSSMYASLGERVTITCKASQDMNNYLRWFQQKPGKSPQTLIFRANRLVDGVPSRFSGSGSGQDYSLTISSLEFEDMGIYYCLQHDKFPPTFGGGTKLEIK
# notes: Murine monoclonal antibody, kappa light chain; also called LT101/LT103
# B2: LT105 (P2E9.7) (antibody, IgG1, V domains shown)
# VH: DVQLQESGPGLVKPSQSLSLTCSVTGYSITSGYYWNWIRQFPGNKLEGMGYISYDGSNNYNPSLKNRISITRDSSKNQFFLKLNSVTAEDSGTYYCARDAYSYGMDYWGQGTSVTVSS
# VL: DIVLTQSPASLAVSLGQRATISCRASESVDNYGISFMHWYQQKPGQPPKLLIYRASNLESGIPARFSGSGSRTDFTLTINPVETDDVATFYCQQSNKDPYTFGGGTKLEIK
# notes: The humanized versions were tested only for solubility; also called mAb LT105
# B3: LT107 (P5C4.1) (antibody, V domains shown)
# VH: QVQLKQSGPGLVQPSQNLSITCTVSGFSLTNYGIHWIRQPPGKGLEWLGVIWSGGSTDHNAAFISRLSISKDNSKSQVFFTMNSLEVDDTAIYYCARNRAYYRYEGGMDYWGQGTSVTVSS
# VL: DIKMTQSPSSMYASLGERVTITCKASQDINTYLNWFQQKPGKSPMTLIYRADRLLDGVPSRFSGSGSGQDYSLTISSLEDEDMGIYYCQQYDDFPLTFGAGTKLELK
# notes: Murine monoclonal antibody, kappa light chain; also called mAb LT107
# B4: LT108 (P4F2.2) (antibody, V domains shown)
# VH: B3 VH with N17S, N31D, A62V, I64T, S68N, T81K, V87P, I92M
# VL: B3 VL
# notes: also called mAb LT108
# B5: A0D9 (antibody, V domains shown)
# VH: QVQLKQSGPGLVQPSQSLSITCTVSGFSLSTYGVHWVRQFPGKGLEWLGVIWRGGNTNYNAAFMSRLTISKDNSKSQVFFKMNSLQAKDTAIYYCVRNQIYDGYYDYAMDYWGQGTSVTVSS
# VL: DIKMTQSPSSMYASLGERVTITCKASQDINTYLNWLQQKPGKSPKTLIYRANRLVDGVPSRFSGRGSGQDYSLTISSLEYEDVGIYYCLHYDAFPWTFGGGTKLEIK
# notes: Murine monoclonal antibody, kappa light chain; also called mAb A0D9; AOD9
# B6: 9B4 (antibody, V domains shown)
# VH: QVTLKESGPGILQPSQTLSLTCSFSGFSLSTSGMGVSWIRQPSGKGLEWLAHIYWDDDKRYNPSLRSRLTISKDTSRNQVFLKITSVDTADTATYYCARREGYYGSSFDFDVWGAGTTVTVSS
# VL: QIVLSQSPAILSASPGEKVTMTCRASSSVSYMIWYQQKPGSSPKPWIYATSSLASGVPTRFSGSGSGTSYSLTISRVEAADAATYYCQQWSYNPLTFGAGTKLELK
# notes: Murine monoclonal antibody, kappa light chain; also called LT 9B4; LT9B4
# B7: A1D5 (antibody, V domains shown)
# VH: EVQLQQSGPELVKPGASVKISCKASGYSFTGYFMNWMRQSHGKSLEWIGRINPYNGDSFYNQKFKDKATLTVDKSSTTAHMELLSLTSEDSAVYYCGRGYDAMDYWGQGTSVTVSS
# VL: DIQMTQTTSSLSASLGDRVTISCRASQDISNFLTWYQQKPDGTVKLLIYYTSKLHSGVPSRFSGSGSGTDYSLTISNLEPGDIATYYCQQVSKFPWTFGGGAKLEIK
# notes: Murine monoclonal antibody, kappa light chain; also called mAb A1D5
# B8: LT102 (P1G8.2) (antibody, IgG1, V domains shown)
# VH: EVKLVESGGGLVKPGGSLKLSCAVSGFTFSDYYMYWIRQTPEKRLEWVATIGDGTSYTHYPDSVQGRFTISRDYATNNLYLQMTSLRSEDTALYYCARDLGTGPFAYWGQGTLVTVSA
# VL: DVLMTQTPRSLPVSLGDQASISCRSSQNIVHSNGNTYLEWYLQKPGQSPKLLIYKVSNRFSGVPDRFSGSGSGTDFTLKISRVEAEDLGVYYCFQGSHFPWTFGGGTKLEIK
# notes: also called mAb LT102; LT012
# B9: Murine LTBR-mIgG1 (Fc fusion, UniProt P50284 31-223, looked up)
# chain: QLVPPYRIENQTCWDQDKEYYEPMHDVCCSRCPPGEFVFAVCSRSQDTVCKTCPHNSYNEHWNHLSTCQLCRPCDIVLGFEEVAPCTSDRKAECRCQPGMSCVYLDNECVHCEEERLVLCQPGTEAEVTDEIMDTDVNCVPCKPGHFQNTSSPRARCQPHTRCEIQGLVEAAPGTSYSDTICKNPPEPGAMLL
# notes: also called mLTBR-mIgG1; mLTβR-mIg; not shown: murine IgG1 part
# B10: monomeric LTβR (receptor, UniProt P36941 31-227, looked up)
# chain: QAVPPYASENQTCRDQEKEYYEPQHRICCSRCPPGTYVSAKCSRIRDTVCATCAENSYNEHWNYLTICQLCRPCDPVMGLEEIAPCTSKRKTQCRCQPGMFCAAWALECTHCELLSDCPPGTEAELKDEVGKGNNHCVPCKAGHFQNTSSPSARCQPHTRCENQGLVEAAPGTAQSDTTCKNPLEPLPPEMSGTMLM
# notes: Injected at 20 µM in the Biacore assay; also called LTbR
# B11: LTβR-Ig (Fc fusion, UniProt P36941 31-227, looked up)
# chain: B10 chain
# modifications: biotin label in the II-23 assay (sites not given)
# notes: also called LTBR-Ig; LTbR-Ig; not shown: Ig (Fc) part
# Target: T1, soluble recombinant human lymphotoxin …
# Assay: cell-based or functional assay
Binder,"IC50 nM, inhibition of IL-8 release",Maximum % Inhibition of IL-8 release [%]
B1,1.11 nM,90
B2,1.06 nM and 0.52 nM,100
B3,0.53 nM,95
B4,1.3 nM,–
B5,1.67 nM,94
B6,0.6 nM,95
B7,2.5 nM,94
B8,0.406 nM and 0.991 nM,92

# Target: T2, human LT
# Assay: reagent description; assay not stated
row,Binder,fold lower affinity than for murine LT [fold]
1,B9,~2

# Target: T3, LTα3 (soluble homotrimer)
# Assay: ELISA on plate-coated LTα3 (1 or 5 ug/ml)
# Protocol: For the LTa3 ELISA, microtiter plates were coated with LTα3 (1 or 5 ug/ml in PBS) then nonspecific binding sites were blocked with a 1% casein buffer. Samples (antibodies, receptor-Ig) were added and binding detected with HRP-conjugated anti-murine Ig antibodies. For assessment of ability of mAbs to block interaction between LTα3 and TNFR-hIg (p55), plates were coated with LTα3 and blocked as described above. Serial dilutions of antibodies were added to plate 30 minutes prior to TNFR-Ig addition. Binding of TNFR-hIg to plate-bound LTα3 was detected with an HPR conjugated anti-human Ig antibody.
row,Binder,binding result
1,B2,no binding
2,B3,no binding
3,B4,no binding
4,B5,no binding
5,B6,no binding
6,B7,no binding
7,B8,no binding

# Target: T4, LTα1β2 on the surface of PMA-treated …
# Assay: FACS, inhibition of biotin-LTβR-Ig binding to PMA-treated II-23 cells
# Protocol: (§1) II-23 cells were incubated with 50 ng/ml PMA for 4 hours at 37° C. 5% CO2. The cells were washed and 500,000 cells were added to each well of a 96-well plate. The antibody was diluted to the appropriate concentrations and added to the II-23 cells. After a 30 minute incubation period at 4° C., the biotin labeled LTβR-Ig is added to each well for a final concentration of 1 ug/ml. The cells are incubated at 4° C. for an additional 30 minutes, and then washed 3 times. Streptavidin-PE was diluted to 1/500 and added to each well and incubated for 1 hour at 4° C. The cells were washed once and read by FACS analysis. The mean fluorescence intensity is plotted versus antibody concentrations, and an IC50 is determined from a 4-parameter curve fit of the data.
row,Binder,potency in an II-23 assay (% blockade) [%]
1,B2,> 90
2,B5,> 90
3,B6,> 90
4,B7,> 90
5,B8,> 90

# Target: T5, Soluble Flag-tagged LTα1β2
# Assay: SPR (Biacore 3000), Flag-LTα1β2 captured on anti-Flag M2; LTβR binding site 1
row,Binder,Kd [nM]
1,B10,~50

# Target: T5, Soluble Flag-tagged LTα1β2
# Assay: SPR (Biacore 3000), Flag-LTα1β2 captured on anti-Flag M2; LTβR binding site 2
row,Binder,Kd [nM]
1,B10,~1500

# Target: T4, LTα1β2 on the surface of PMA-treated …
# Assay: FACS, inhibition of biotin-LTβR-Ig (1 ug/ml) binding to PMA-treated II-23 cells
# Protocol: as §1
row,Binder,Maximum % Inhibition [%]
1,B1,77
2,B2,97
3,B3,80
4,B5,92
5,B6,99
6,B7,92
7,B8,98

# Target: T4, LTα1β2 on the surface of PMA-treated …
# Assay: competition FACS (II-23 assay, as in FIG. 4): LT-expressing cells, varied antibody, labelled LTβR-Ig; MFI of bound LTβR-Ig
# Protocol: as §1
row,Binder,IC50 (read off the curve) [µg/mL]
1,B1,~0.04
2,B2,~0.06
3,B3,~0.03
4,B5,~0.2
5,B7,~0.6
6,B8,~0.4

# Target: T4, LTα1β2 on the surface of PMA-treated …
# Assay: competition FACS (II-23 assay, as in FIG. 4): LT-expressing cells, varied competitor, labelled LTβR-Ig; MFI of bound LTβR-Ig
# Protocol: as §1
row,Binder,IC50 (read off the curve) [µg/mL]
1,B11,~0.03

# Target: T4, LTα1β2 on the surface of PMA-treated …
# Assay: competition FACS (II-23 assay): PMA-treated II-23 cells, varied antibody, then biotin-LTβR-Ig at 1 ug/ml, streptavidin-PE; MFI of bound LTβR-Ig
# Protocol: as §1
row,Binder,IC50 (read off the curve) [nM]
1,B2,~1
2,B6,~0.9
3,B8,~3

# Target: T4, LTα1β2 on the surface of PMA-treated …
# Assay: competition FACS (II-23 assay): PMA-treated II-23 cells, varied competitor, then biotin-LTβR-Ig at 1 ug/ml, streptavidin-PE; MFI of bound LTβR-Ig
# Protocol: as §1
row,Binder,IC50 (read off the curve) [nM]
1,B11,~0.8
